# Tested on: primary human B cells
# Experiment: Expansion and maintenance of BCL-6/BCL-XL/CD40L transduced primary human B cells in culture
# Assay type: cell-based
# Conditions: BCL-6/BCL-xL transduced B cells, IL-21 50 ng/mL, absence of L-cells
# Procedure: The activated, isolated B cells (FIG. 7A) were stably transduced with BCL-6/BCL-xL or a combination of BCL-6/BCL-XL and CD40L based protocols for retroviral transduction of primary B cells have been described in the literature (e.g. Kwakkenbos et al. Nat Med 2010) and as described in this invention (Example 10).
# After 72 hours BCL-6/BCL-XL modified B cells were harvested, split and either cultured in the absence of L-cells or cultured on hCD40L expressing L cells. BCL-6/BCL-xL and CD40L transduced B cells are cultured in complete B cell medium supplemented with 50 ng/mL IL-21 in the absence of L-cells. […] CD40L expression on the B cells is measured on a flow cytometer using an antibody directed against CD154 (FIG. 7C).
# B cells were isolated from healthy donor PBMC using the magnetic bead-based cell separation method from Miltenyi. […] Purity of the isolated B cells was measured by FACS using antibodies directed against CD3 and CD20. […] Expression of BCL6/BCL-xL was measured by FACS by GFP expression. […] Expression of BCL6/BCL-xL was measured by GFP expression and expression of CD40L was measured using an antibody directed against CD154, analyzed by FACS. […] Cells were split twice a week at a concentration of 0.2e6/mL cells and cell viability was analyzed. […] The total cumulative cell counts was calculated based on counts that were measured while splitting the cells. […]
molecule,measurement,value
CD40L transgene: hCD40L transgene expressed in BCL-6/BCL-xL immortalized B cells (protein) DNA: MIETYNQTSPRSAATGLPISMKIFMYLLTVFLITQMIGSALFAVYLHRRLDKIEDERNLHEDFVFMKTIQRCNTGERSLSLLNCEEIKSQFEGFVKDIMLNKEETKKENSFEMQKGDQNPQIAAHVISEASSKTTSVLQWAEKGYYTMSNNLVTLENGKQLTVKRQGLYYIYAQVTFCSNREASSQAPFIASLCLKSPGRFERILLRAANTHSSAKPCGQQSIHLGGVFELQPGASVFVNVTDPSQVSHGTGFTSFGLLKL,B cell expansion without CD40L-expressing feeder cells,can be used as a replacement for CD40L-expressing feeder cells for expansion

# Reference: patent US20220228164A1, “ENGINEERED ANTIGEN PRESENTING CELLS” (Neogene Therapeutics B.V., priority 2021, published 2022)
